From patent publication US20240383994A1 (CHIA TAI TIANQING PHARMACEUTICAL GROUP, published 2024)

Legend:
[1] = biological target: T1, hCD40-His protein (Acro, Cat. No.: CD0-H5228) (human, UniProt P25942 21-193); experiment: BLI (Fortebio Octet RED96e), antibody captured on AHC sensor, antigen 1.56-100 nM, 1:1 model
T1 construct: Bought protein; also called human CD40 antigen; not shown: His tag
Procedure: The affinity of humanized anti-CD40 antibodies to an hCD40-His protein (Acro, Cat. No.: CD0-H5228) and a CynoCD40-His protein (Acro, Cat. No.: CD0-C52H6) was detected by a ForteBio molecular interaction system. Firstly, an AHC biosensor (Fortebio, Cat. No.: 18-5060) was activated, and then immersed in an anti-CD40 antibody solution at a final concentration of 5 μg/mL to capture the antibodies. Serially 2-fold diluted hCD40-His protein and CynoCD40-His protein in a final concentration range of 1.56 nM-100 nM were then […] the AHC biosensor. The response signals were detected in real time on a Fortebio molecular interaction system (Fortebio Octet RED96e) to give association and dissociation curves. After the completion of dissociation in each cycle, the AHC biosensor was regenerated for the next capture; the procedure was repeated until the affinity of the different antibodies for CD40 was determined. The resulting data were analyzed by Fortebio Data Analysis 11.0 software using a 1:1 (Langmuir) binding model to determine the Kₐ (Kₒₙ) and Kd (Kdis) values, and the dissociation constant KD was calculated by KD=Kd/Kₐ. See www.fortebio.com for more detailed detection procedures and related information.

[2] = biological target: human CD40 (hCD40), full length, on cells (human, UniProt P25942 21-277); experiment: cell-based or functional assay

Binder | Kd [1] [nM] | koff [1] [s⁻¹] | kon [1] [M⁻¹ s⁻¹] | IC50, inhibition of Ramos cell apoptosis induced by CD40L and IL-4 [2] [nM] | Inhibition, % of Ramos cell apoptosis at 0.0128 ng/mL [2] [%] | Inhibition, % of Ramos cell apoptosis at 0.064 ng/mL [2] [%] | Inhibition, % of Ramos cell apoptosis at 0.32 ng/mL [2] [%] | Inhibition, % of Ramos cell apoptosis at 1.6 ng/mL [2] [%] | Inhibition, % of Ramos cell apoptosis at 8 ng/mL [2] [%] | Inhibition, % of Ramos cell apoptosis at 40 ng/mL [2] [%] | Inhibition, % of Ramos cell apoptosis at 200 ng/mL [2] [%] | Inhibition, % of Ramos cell apoptosis at 1000 ng/mL [2] [%]
Chi-B01 (antibody, human IgG4 S228P, kappa, V domains shown, also called chimeric B01) VH: QIQLVQSGPELKKPGETVKISCKASGYTFTNYGMNWVKQAPGKGLKWMGWINPYTGEPTYADDFKGRFAFSVETSASTAYLQINNLKNEDTATYFCARKPPFDYWGQGTTLTVSS VL: DIVMTQAAPSVPVTPGESVSISCRSSKSLLHSNGNTYLYWFLQRPGQSPQILIYRVSNLASGVPDRFSGSGSGTAFTLRISRVEAEDVGVYYCMQHVEYPFTFGSGTKLEIKR | 7.66 | 0.00246 | 321000 | 0.0301 | -24 | -33 | -12 | 2 | 55 | 93 | 96 | 93
Chi-B02 (antibody, human IgG4 S228P, kappa, V domains shown) VH: EVQLQQSGPELVKPGASVKMSCKASGYTFTSYVMYWVKQKPGQGLEWIGYVNPYNDGTNYNEKFKGKATLTSDKSSSTAYMELSSLTSEDSAVYYCARGAMDYWGQGTSVTVSS VL: DIVMTQAAPSVPVTPGESVSISCRSSKSLLHSQGNTYLYWFLQRPGQSPQILIYRVSNLASGVPDRFSGSGSGTAFTLRISRVEAEDVGVYYCMQHVEYPFTFGSGTKLEIKR |  |  |  | 0.0275 | -18 | -16 | -5 | 5 | 59 | 92 | 88 | 75

Other lines, results leading:

Kd [1] [nM] | koff [1] [s⁻¹] | kon [1] [M⁻¹ s⁻¹] | IC50, inhibition of Ramos cell apoptosis induced by CD40L and IL-4 [2] [nM] | Inhibition, % of Ramos cell apoptosis at 0.0128 ng/mL [2] [%] | Inhibition, % of Ramos cell apoptosis at 0.064 ng/mL [2] [%] | Inhibition, % of Ramos cell apoptosis at 0.32 ng/mL [2] [%] | Inhibition, % of Ramos cell apoptosis at 1.6 ng/mL [2] [%] | Inhibition, % of Ramos cell apoptosis at 8 ng/mL [2] [%] | Inhibition, % of Ramos cell apoptosis at 40 ng/mL [2] [%] | Inhibition, % of Ramos cell apoptosis at 200 ng/mL [2] [%] | Inhibition, % of Ramos cell apoptosis at 1000 ng/mL [2] [%] | Binder
59.9 | 0.0484 | 808000 |  |  |  |  |  |  |  |  |  | hzA01-1.2 (antibody, human IgG4 S228P, kappa, V domains shown, Humanized A01; also called hzA01L1 + hzA01H2) VH: QVQLVESGGGVVQPGRSLRLSCAASGFSLPTSGVHWVRQAPGKGLEWVAVIWAGGDTNYADSVKGRFTISRDNSKNTVYLQMNSLRAEDTAVYYCLGHGHFDVWGQGTLVTVSS VL: DIQMTQSPSSLSASVGDRVTITCRSSQSLVHSSGNTYLQWYQQKPGKAPGLLIYKVSNRFSGVPSRFSGSGSGTDFTLTISSLQPEDFATYYCSQTTHVPWTFGQGTKVEIKR
113 | 0.101 | 893000 |  |  |  |  |  |  |  |  |  | hzA01-2.2 (antibody, human IgG4 S228P, kappa, V domains shown, Humanized A01; also called hzA01L2 + hzA01H2) VH: QVQLVESGGGVVQPGRSLRLSCAASGFSLPTSGVHWVRQAPGKGLEWVAVIWAGGDTNYADSVKGRFTISRDNSKNTVYLQMNSLRAEDTAVYYCLGHGHFDVWGQGTLVTVSS VL: EIVLTQSPGTLSLSPGERATLSCRSSQSLVHSSGNTYLQWYQQKPGQAPRLLIYKVSNRFSGIPDRFSGSGSGTDFTLTISRLEPEDFAVYYCSQTTHVPWTFGQGTKVEIKR
 |  |  | 0.0119 | -10 | -8 | 16 | 31 | 90 | 90 | 84 | 70 | Chi-B03 (antibody, human IgG4 S228P, kappa, V domains shown) VH: EVKLVESGGGLVQPGGSLRLSCATSGFTFSDFYMEWVRQPPGKRLEWIAASRDKANDYTTEYSPSVQGRFIVSRDSSQSILYLQMNALRTEDTAIYYCARDVGRSYALDYWGQGTSVTVSS VL: QVVLTQSPAIMSASPGEKVTMTCSASSSVTYMHWYQQKSGTSPKRWIYVTSKLASGVPTRFSGSGSGTSYSLTISSMEAEDAATYYCQQWSRKPPTFGAGTKLELKR
